Source: patent US20110256140A1 (POMONA RICERCA S R L, published 2011)

Tests used:
Assay in all cases: binding of Fab e20 to H77 E1E2 alanine mutants; method not stated
[1] = molecular target: H77 E1E2 mutant G530A (Hepatitis C virus genotype 1a, H77) (UniProt P27958)
[2] = molecular target: H77 E1E2 mutant I413A (Hepatitis C virus genotype 1a, H77) (UniProt P27958)
[3] = molecular target: H77 E1E2 mutant T414A (Hepatitis C virus genotype 1a, H77) (UniProt P27958)
[4] = molecular target: H77 E1E2 mutant Y486A (Hepatitis C virus genotype 1a, H77) (UniProt P27958)
[5] = molecular target: T1, H77 E1E2 mutant Q412A (Hepatitis C virus genotype 1a, H77, UniProt P27958 384-746)
T1 construct: Co-expressed with E1; P27958 is the whole polyprotein

[6] = molecular target: T2, H77 E1E2 mutant N415A (Hepatitis C virus genotype 1a, H77, UniProt P27958 384-746)
T2 construct: Co-expressed with E1; P27958 is the whole polyprotein

[7] = molecular target: T3, H77 E1E2 mutant T416A (Hepatitis C virus genotype 1a, H77, UniProt P27958 384-746)
T3 construct: Co-expressed with E1; P27958 is the whole polyprotein

[8] = molecular target: T4, H77 E1E2 mutant N417A (Hepatitis C virus genotype 1a, H77, UniProt P27958 384-746)
T4 construct: Co-expressed with E1; P27958 is the whole polyprotein

[9] = molecular target: T5, H77 E1E2 mutant G418A (Hepatitis C virus genotype 1a, H77, UniProt P27958 384-746)
T5 construct: Co-expressed with E1; P27958 is the whole polyprotein

[10] = molecular target: T6, H77 E1E2 mutant S419A (Hepatitis C virus genotype 1a, H77, UniProt P27958 384-746)
T6 construct: Co-expressed with E1; P27958 is the whole polyprotein

[11] = molecular target: T7, H77 E1E2 mutant W420A (Hepatitis C virus genotype 1a, H77, UniProt P27958 384-746)
T7 construct: Co-expressed with E1; P27958 is the whole polyprotein

[12] = molecular target: T8, H77 E1E2 mutant H421A (Hepatitis C virus genotype 1a, H77, UniProt P27958 384-746)
T8 construct: Co-expressed with E1; P27958 is the whole polyprotein

[13] = molecular target: T9, H77 E1E2 mutant I422A (Hepatitis C virus genotype 1a, H77, UniProt P27958 384-746)
T9 construct: Co-expressed with E1; P27958 is the whole polyprotein

[14] = molecular target: T10, H77 E1E2 mutant N423A (Hepatitis C virus genotype 1a, H77, UniProt P27958 384-746)
T10 construct: Co-expressed with E1; P27958 is the whole polyprotein

[15] = molecular target: T11, H77 E1E2 mutant R483A (Hepatitis C virus genotype 1a, H77, UniProt P27958 384-746)
T11 construct: Co-expressed with E1; P27958 is the whole polyprotein

[16] = molecular target: T12, H77 E1E2 mutant P484A (Hepatitis C virus genotype 1a, H77, UniProt P27958 384-746)
T12 construct: Co-expressed with E1; P27958 is the whole polyprotein

[17] = molecular target: T13, H77 E1E2 mutant W487A (Hepatitis C virus genotype 1a, H77, UniProt P27958 384-746)
T13 construct: Co-expressed with E1; P27958 is the whole polyprotein

[18] = molecular target: T14, H77 E1E2 mutant H488A (Hepatitis C virus genotype 1a, H77, UniProt P27958 384-746)
T14 construct: Co-expressed with E1; P27958 is the whole polyprotein

[19] = molecular target: T15, H77 E1E2 mutant Y527A (Hepatitis C virus genotype 1a, H77, UniProt P27958 384-746)
T15 construct: Co-expressed with E1; P27958 is the whole polyprotein

[20] = molecular target: T16, H77 E1E2 mutant N532A (Hepatitis C virus genotype 1a, H77, UniProt P27958 384-746)
T16 construct: Co-expressed with E1; P27958 is the whole polyprotein

[21] = molecular target: T17, H77 E1E2 mutant D533A (Hepatitis C virus genotype 1a, H77, UniProt P27958 384-746)
T17 construct: Co-expressed with E1; P27958 is the whole polyprotein

[22] = molecular target: T18, H77 E1E2 mutant T534A (Hepatitis C virus genotype 1a, H77, UniProt P27958 384-746)
T18 construct: Co-expressed with E1; P27958 is the whole polyprotein

[23] = molecular target: T19, H77 E1E2 mutant D535A (Hepatitis C virus genotype 1a, H77, UniProt P27958 384-746)
T19 construct: Co-expressed with E1; P27958 is the whole polyprotein

[24] = molecular target: T20, H77 E1E2 mutant N540A (Hepatitis C virus genotype 1a, H77, UniProt P27958 384-746)
T20 construct: Co-expressed with E1; P27958 is the whole polyprotein

[25] = molecular target: T21, H77 E1E2 mutant R543A (Hepatitis C virus genotype 1a, H77, UniProt P27958 384-746)
T21 construct: Co-expressed with E1; P27958 is the whole polyprotein

[26] = molecular target: T22, H77 E1E2 mutant P544A (Hepatitis C virus genotype 1a, H77, UniProt P27958 384-746)
T22 construct: Co-expressed with E1; P27958 is the whole polyprotein

[27] = molecular target: T23, H77 E1E2 mutant P545A (Hepatitis C virus genotype 1a, H77, UniProt P27958 384-746)
T23 construct: Co-expressed with E1; P27958 is the whole polyprotein

[28] = molecular target: T24, H77 E1E2 mutant G547A (Hepatitis C virus genotype 1a, H77, UniProt P27958 384-746)
T24 construct: Co-expressed with E1; P27958 is the whole polyprotein

[29] = molecular target: T25, H77 E1E2 mutant W549A (Hepatitis C virus genotype 1a, H77, UniProt P27958 384-746)
T25 construct: Co-expressed with E1; P27958 is the whole polyprotein

[30] = molecular target: T26, H77 E1E2 mutant F550A (Hepatitis C virus genotype 1a, H77, UniProt P27958 384-746)
T26 construct: Co-expressed with E1; P27958 is the whole polyprotein

B1: Fab e20 (Fab, V domains shown)
VH: LLEQSGAEVKKPGSSVKVSCKASGDHYGINWVRQAPGQGLEWMGGIIPVFGTTTYAQKFQGRATITADDSTGTAFLELTRLTFDDTAVYFCATPHQLHVLRGGKALSPWDYWGQGT
VL: MAELTQSPATLSVSPGERATLSCRASQSVSSNLAWYQQKRGQAPSLLIYGTSTRATGIPARFSGSGSGTEFTLTISSLQSEDFAVYYCQQYNDWPSTFGQGT
notes: also called e20 antibody fragment
[1]
  e20 binding activity (% of wild-type H77) (% of wild-type H77): 3
[2]
  e20 binding activity (% of wild-type H77) (% of wild-type H77): 100
[3]
  e20 binding activity (% of wild-type H77) (% of wild-type H77): 95
[4]
  e20 binding activity (% of wild-type H77) (% of wild-type H77): 95
[5]
  e20 binding activity (% of wild-type H77): 100 % of wild-type H77
[6]
  e20 binding activity (% of wild-type H77): 98 % of wild-type H77
[7]
  e20 binding activity (% of wild-type H77): 96 % of wild-type H77
[8]
  e20 binding activity (% of wild-type H77): 97 % of wild-type H77
[9]
  e20 binding activity (% of wild-type H77): 100 % of wild-type H77
[10]
  e20 binding activity (% of wild-type H77): 100 % of wild-type H77
[11]
  e20 binding activity (% of wild-type H77): 97 % of wild-type H77
[12]
  e20 binding activity (% of wild-type H77): 100 % of wild-type H77
[13]
  e20 binding activity (% of wild-type H77): 100 % of wild-type H77
[14]
  e20 binding activity (% of wild-type H77): 100 % of wild-type H77
[15]
  e20 binding activity (% of wild-type H77): 100 % of wild-type H77
[16]
  e20 binding activity (% of wild-type H77): 100 % of wild-type H77
[17]
  e20 binding activity (% of wild-type H77): 100 % of wild-type H77
[18]
  e20 binding activity (% of wild-type H77): 100 % of wild-type H77
[19]
  e20 binding activity (% of wild-type H77): 92 % of wild-type H77
[20]
  e20 binding activity (% of wild-type H77): 100 % of wild-type H77
[21]
  e20 binding activity (% of wild-type H77): 100 % of wild-type H77
[22]
  e20 binding activity (% of wild-type H77): 100 % of wild-type H77
[23]
  e20 binding activity (% of wild-type H77): 10 % of wild-type H77
[24]
  e20 binding activity (% of wild-type H77): 70 % of wild-type H77
[25]
  e20 binding activity (% of wild-type H77): 68 % of wild-type H77
[26]
  e20 binding activity (% of wild-type H77): 72 % of wild-type H77
[27]
  e20 binding activity (% of wild-type H77): 97 % of wild-type H77
[28]
  e20 binding activity (% of wild-type H77): 98 % of wild-type H77
[29]
  e20 binding activity (% of wild-type H77): 96 % of wild-type H77
[30]
  e20 binding activity (% of wild-type H77): 94 % of wild-type H77
